{
  "source": "paper PMC7118729",
  "biological_target": "SARS-CoV non-structural protein 15 (Nsp15) [change] (SARS-CoV)",
  "test": "SEC",
  "data": [
    {"substance": "SARS-CoV non-structural protein 15 (Nsp15) [change] (enzyme)", "values": [
      {"measurement": "stoichiometry N", "result": 3}
    ]}
  ]
}
